Bridges are numbered along the chain shown (N, C = ends).
Assays:
[1] = target: T1, extracellular domain of activin receptor type IIB (ActRIIBecd), biotinylated (Homo sapiens (Human), UniProt Q13705 27-117, amino-biotinylated with amine-PEG3-Biotin); test: Mean KD column of Table 5; method not restated (BIAcore as Example 5); species also listed in Table 4
T1 construct: immobilised on a streptavidin-coated sensor chip; also called biotinylated ActRIIBecd; extracellular domain of ActRIIB
T1 sequence: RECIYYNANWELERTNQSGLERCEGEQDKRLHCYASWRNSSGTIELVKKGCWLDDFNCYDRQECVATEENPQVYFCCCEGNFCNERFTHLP
How it was run: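 Kinetics read-out: ka, kd and equilibrium binding, fitted from sensograms after blank-cell subtraction. Setup comprised a streptavidin chip, biotin-ActRIIBecd loaded at 50-250 RU, analytes in glycine pH 4.5, flow 10 μl/min, temperature 25° C.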

[2] = target: T1, extracellular domain of activin …; test: BIAcore SPR as Example 5 (method not restated); SD ±3.30 nM
Procedure: (§1) Biosensor experiments. In one embodiment, experiments were performed on a BIAcore™ T100/T200 instrument (Pharmacia Biosensor AB) in the multichannel mode (serial flow path involving flow cells 1+2+3+4). Flow rate was 10 μl/min; temperature was 25° C.; and data were recorded at 2.5 points/s. All four segments of a sensor chip CMS were coated with streptavidin (Sigma) to a density of 2000 pg/mm² (2000 resonance units) by the aminocoupling procedure. ActRIIBecd (10 mg) and amine-PEG3-Biotin (10 mg, Pierce, Rockford, Ill.) were dissolved in 200 μl H₂O and 10 mg NaCNBH₃ was added to prepare biotinylated ActRIIBecd. The reaction mixture was heated at 70° C. for 24 h, after that a further 10 mg NaCNBH₃ was added and the reaction was heated at 70° C. for another 24 h. After cooling to room temperature, the mixture was desalted with the spin column (3,000 molecular weight cut off (MWCO)). […] Sensograms were recorded during flow of the analyte (the ActRIIBecd-associated polypeptides (i.e., domains) as previously described) first through flow cell 1 (control) then through flow cell 2 (biotinylated ActRIIBecd). […] The sensograms obtained at 1.11, 3.33, 10, 30, and 90 nM analyte were evaluated for equilibrium binding, association rate, and dissociation rate by using the programs supplied with the instrument (BIA evaluation 2.1; Software Handbook. 1995; Pharmacia Biosensor AB).

[3] = target: T1, extracellular domain of activin …; test: BIAcore SPR as Example 5 (method not restated); SD ±1.27 nM
Procedure: as §1

[4] = target: T1, extracellular domain of activin …; test: BIAcore SPR as Example 5 (method not restated); SD ±1.60 nM
Procedure: as §1

[5] = target: T1, extracellular domain of activin …; test: BIAcore SPR as Example 5 (method not restated); SD ±2.35 nM
Procedure: as §1

[6] = target: T1, extracellular domain of activin …; test: BIAcore SPR as Example 5 (method not restated); SD ±1.32 nM
Procedure: as §1

[7] = target: T1, extracellular domain of activin …; test: BIAcore SPR as Example 5 (method not restated); SD ±0.75 nM
Procedure: as §1

[8] = target: T1, extracellular domain of activin …; test: BIAcore SPR as Example 5 (method not restated); SD ±2.08 nM
Procedure: as §1

[9] = target: T1, extracellular domain of activin …; test: BIAcore SPR as Example 5 (method not restated); SD ±2.71 nM
Procedure: as §1

[10] = target: T1, extracellular domain of activin …; test: BIAcore SPR as Example 5 (method not restated); SD ±1.12 nM
Procedure: as §1

[11] = target: T1, extracellular domain of activin …; test: BIAcore SPR as Example 5 (method not restated); SD ±1.03 nM
Procedure: as §1

[12] = target: T1, extracellular domain of activin …; test: BIAcore SPR as Example 5 (method not restated); SD ±0.96 nM
Procedure: as §1

[13] = target: T1, extracellular domain of activin …; test: BIAcore SPR as Example 5 (method not restated); SD ±2.39 nM
Procedure: as §1

[14] = target: T1, extracellular domain of activin …; test: BIAcore SPR as Example 5 (method not restated); SD ±1.65 nM
Procedure: as §1

[15] = target: T1, extracellular domain of activin …; test: BIAcore SPR as Example 5 (method not restated); SD ±2.05 nM
Procedure: as §1

[16] = target: T1, extracellular domain of activin …; test: BIAcore SPR, biotinylated ActRIIBecd on chip; SD ±12.79 nM
Procedure: as §1

[17] = target: T1, extracellular domain of activin …; test: BIAcore SPR as Example 5 (method not restated); SD ±2.09 nM
Procedure: as §1

[18] = target: T1, extracellular domain of activin …; test: BIAcore SPR as Example 5 (method not restated); SD ±3.22 nM
Procedure: as §1

[19] = target: T1, extracellular domain of activin …; test: BIAcore SPR as Example 5 (method not restated); SD ±2.14 nM
Procedure: as §1

[20] = target: T1, extracellular domain of activin …; test: BIAcore SPR as Example 5 (method not restated); SD ±3.01 nM
Procedure: as §1

B1: SEQ ID NO: 236, cysteine pairs C41-C59^a (designed binder)
chain: NSKDPKACCVPTELSAPSPLYLDENEKPVLKNYQDMVVHGCGCRGQAKRKGYKRLKSSCKRHPLY
modifications: disulfide 41-59
Work on B1 yielded a Kd [1] of 49.5 nM and a Kd [2] of 49.5 nM.

B2: SEQ ID NO: 236, cysteine pairs C59-C59^b, C8-C43^a, C9-C41^a (designed binder)
chain: B1 chain
modifications: disulfide 9-41, 8-43; also: homodimer via intermolecular C59-C59 disulfide
notes: homodimer by intermolecular disulfide
In the case of B2, the Kd [1] is reported as 17.1 nM and the Kd [3] is reported as 17.1 nM.

B3: SEQ ID NO: 276, cysteine pairs C67-C71^a, C8-C41^a, C9-C43^a, C109-C109^b (designed binder)
chain: NSKIPKACCVPTELSAISMLYLDENEKVVLKNYQDMVVEGCGCRVDFSDVGWNDWIVAPPGYHAFYCHGECPFPLADHLNSTNHAIVQTLVNSVAQAKHKQRKRLKSSCKRHPLY
modifications: disulfides C67-C71 (intra), C8-C41 (intra), C9-C43 (intra), C109-C109 (inter)
notes: as for B2
Binder B3 has a Kd [1] of 5.71 nM and a Kd [4] of 5.71 nM.

B4: SEQ ID NO: 276, cysteine pairs C8-C9^a (designed binder)
chain: B3 chain
modifications: disulfides C8-C9 (intra)
In the case of B4, the Kd [5] is reported as 27.9 nM and the Kd [1] is reported as 27.9 nM.

B5: SEQ ID NO: 268, cysteine pairs C23-C27^a, C65-C65^b, C79-C112^a, C80-C114^a (designed binder)
chain: VDFSDVGWNDWIVAPPGYHAFYCHGECPFPLADHLNSTNHAIVQTLVNSVAQAKHKQRKRLKSSCKRHPLYNSKIPKACCVPTELSAISMLYLDENEKVVLKNYQDMVVEGCGCR
modifications: disulfides C23-C27 (intra), C65-C65 (inter), C79-C112 (intra), C80-C114 (intra)
notes: as for B2
Work on B5 yielded a Kd [1] of 7.21 nM and a Kd [6] of 7.21 nM.

B6: SEQ ID NO: 268, cysteine pairs C23-C27^a, C65-C65^b, C79-C112^b, C80-C114^b (designed binder)
chain: B5 chain
modifications: disulfides C23-C27 (intra), C65-C65 (inter), C79-C112 (inter), C80-C114 (inter)
notes: as for B2
B6 was tested, and the Kd [1] was 7.96 nM and the Kd [7] was 7.96 nM.

B7: SEQ ID NO: 268, cysteine pairs C23-C27^a, C65-C65^b, C79-C114^a, C80-C112^a (designed binder)
chain: B5 chain
modifications: disulfides C23-C27 (intra), C65-C65 (inter), C79-C114 (intra), C80-C112 (intra)
notes: as for B2
Binder B7 has a Kd [1] of 8.74 nM and a Kd [8] of 8.74 nM.

B8: SEQ ID NO: 268, cysteine pairs C23-C79^a (designed binder)
chain: B5 chain
modifications: disulfides C23-C79 (intra)
B8 gave a Kd [1] of 29.6 nM and a Kd [9] of 29.6 nM.

B9: SEQ ID NO: 260, cysteine pairs C15-C80^a, C44-C112^a, C48-C114^a, C79-C79^b (designed binder)
chain: AQAKHKQRKRLKSSCKRHPLYVDFSDVGWNDWIVAPPGYHAFYCHGECPFPLADHLNSTNHAIVQTLVNSVNSKIPKACCVPTELSAISMLYLDENEKVVLKNYQDMVVEGCGCR
modifications: disulfides C15-C80 (intra), C44-C112 (intra), C48-C114 (intra), C79-C79 (inter)
notes: as for B2
Binder B9 has a Kd [1] of 6.56 nM and a Kd [10] of 6.56 nM.

B10: SEQ ID NO: 260, cysteine pairs C15-C15^b, C79-C114^a, C80-C112^a, C44-C48^a (designed binder)
chain: B9 chain
modifications: disulfides C15-C15 (inter), C79-C114 (intra), C80-C112 (intra), C44-C48 (intra)
notes: as for B2
B10 showed a Kd [1] of 7.64 nM and a Kd [11] of 7.64 nM.

B11: SEQ ID NO: 260, cysteine pairs C80-C114^b, C79-C112^b, C44-C48^a (designed binder)
chain: B9 chain
modifications: disulfides C80-C114 (inter), C79-C112 (inter), C44-C48 (intra)
notes: as for B2
In the case of B11, the Kd [1] is reported as 6.89 nM and the Kd [12] is reported as 6.89 nM.

B12: SEQ ID NO: 254, cysteine pairs C23-C27^a, C58-C93^a, C59-C91^a (designed binder)
chain: VDFKDVGWNDHAVAPPGYHAFYCHGECPFPLADHLNSDNHAIVQTKVNSVNSKDPKACCVPTELSAPSPLYLDENEKPVLKNYQDMVVHGCGCR
modifications: disulfides C23-C27 (intra), C58-C93 (intra), C59-C91 (intra)
Work on B12 yielded a Kd [1] of 19.1 nM and a Kd [13] of 19.1 nM.

B13: SEQ ID NO: 254, cysteine pairs C23-C27^a, C58-C91^b, C59-C93^b (designed binder)
chain: B12 chain
modifications: disulfides C23-C27 (intra), C58-C91 (inter), C59-C93 (inter)
notes: as for B2
Work on B13 yielded a Kd [1] of 18.7 nM and a Kd [14] of 18.7 nM.

B14: SEQ ID NO: 254, cysteine pairs C23-C58^a (designed binder)
chain: B12 chain
modifications: disulfides C23-C58 (intra)
In the case of B14, the Kd [15] is reported as 44.4 nM and the Kd [1] is reported as 44.4 nM.

In the case of VDFKDVGWNDHAVAPPGYHAFYCHGECPFPLADHLNSDNHAIVQTKVNSV [Clone No. 14 domain (ActRIIBecd-associated polypeptide)], the Kd [16] is reported as 38.3 nM.

B15: SEQ ID NO: 242, cysteine pairs C15-C15^b, C29-C62^a, C30-C64^a (designed binder)
chain: GQAKRKGYKRLKSSCKRHPLYNSKDPKACCVPTELSAPSPLYLDENEKPVLKNYQDMVVHGCGCR
modifications: disulfide 29-62, 30-64; also: homodimer via intermolecular C15-C15 disulfide
notes: as for B2
Work on B15 yielded a Kd [17] of 17.8 nM and a Kd [1] of 17.8 nM.

B16: SEQ ID NO: 248, cysteine pairs C41-C43^a (designed binder)
chain: NSKDPKACCVPTELSAPSPLYLDENEKPVLKNYQDMVVHGCGCRVDFKDVGWNDHAVAPPGYHAFYCHGECPFPLADHLNSDNHAIVQTKVNSV
modifications: disulfides C41-C43 (intra)
For B16, the Kd [1] was 47.8 nM and the Kd [18] was 47.8 nM.

B17: SEQ ID NO: 248, cysteine pairs C67-C71^a, C8-C43^a, C9-C41^a (designed binder)
chain: B16 chain
modifications: disulfides C67-C71 (intra), C8-C43 (intra), C9-C41 (intra)
For B17, the Kd [1] was 20 nM and the Kd [19] was 20 nM.

B18: SEQ ID NO: 248, cysteine pairs C67-C71^a, C8-C43^b, C9-C41^b (designed binder)
chain: B16 chain
modifications: disulfides C67-C71 (intra), C8-C43 (inter), C9-C41 (inter)
notes: as for B2
Binder B18 has a Kd [20] of 19.2 nM and a Kd [1] of 19.2 nM.
